Tested on: Bacillus subtilis
Assay: cleaved RNA product abundance (RNA/gDNA barcode ratio) relative to median wild-type variant (ratio to wild type); higher = more accumulation of the downstream cleavage product
Protocol: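 MPRA in B. subtilis. Mutagenized RNase Y cleavage-site regions (9% mutation rate) were inserted into a barcoded reporter mRNA (truncated aprE or tetM). Cells were grown in LB at 37°C to OD600 0.3. The cleaved RNA isoform was gel-purified and its barcodes counted; the RNA:gDNA barcode ratio was normalised to the median wild-type variant, and the median over barcodes is reported per variant. The printed sequence is the variable window only; the reporter flanks are not printed.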

[1] = experiment (reporter, strain, medium): exp 2b: truncated aprE reporter, strain BJT200, cleavage site: cggR-gapA (positions -7 to +36 mutated)
[2] = experiment (reporter, strain, medium): exp 4a: truncated aprE reporter, strain BJT201 with 2% xylose (RNase J1 expressed), cleavage site: cggR-gapA (positions -7 to +36 mutated)
[3] = experiment (reporter, strain, medium): exp 6: tetM reporter, strain 168, cleavage site: cggR-gapA (positions -7 to +36 mutated)
[4] = experiment (reporter, strain, medium): exp 8a: truncated aprE reporter, strain BJT201 with 2% xylose (RNase J1 expressed), cleavage site: glnRA (positions -5 to +31 mutated)

Sequence	cleaved RNA product abundance [1]	cleaved RNA product abundance [2]	other results
ACAGACGAAGGAGCCGCAAAGAAGTTTTTAAGGGATGAATAATCCCTCAATATAAATATCTCTCACTTATTTAAA	0.274	0.365	cleaved RNA product abundance [3]: 0.209
ACAGACGAAGGAGCCGCAAAGAAGGTATTAAGGGATGAATAATCCCTCAATATAACTATCTCTCACTTATTTAAA		0.73	
ACAGACGAAGGAGCCGCAAAGAATTTATTAAGGGATGAATAATCCCTCAATATAAATAGCTCTCACTTATTTAAA		0.327	
ACAGACGAAGGAGCCGCAAAGAAATTATTAAGGGATGAATAATCCATCAATATAAATATCTCTCACTTATTTAAA	0.163	0.201	
ACAGACGAAGGAGCCGCTAAGAAGTTATTAAGGGAAGAATAATCCCTCAATATAAATATCTCTCACTTATTTAAA		0.638	
CGACATGTCCCGCTTCTTTCATTAATCCGTTAGCAACTGTTTTGCTAAATACATTTGCCTTTTAAGAGGAGGAAT			cleaved RNA product abundance [4]: 0.22
ACAGACGAAGGAGCCGCAAAGAAGTTATTAAGGGATGAATATTCCATCAATATAAATATCTCTCACTTATTTAAA	0.141	0.312	
ACAGACGAAGGAGCCGCATAGAAGTTATTAAGGGATGAATAATCCCACAATATAAATATCTCTCACTTATTTAAA		0.292	
CGACATGTCCCGCTTCTTTCATTAAACCGTTAGCAACTGTTTTGCTATATACATTTACCTTTTAAGAGGAGGAAT			cleaved RNA product abundance [4]: 0.915
CGACATGTCCCGCTTCTTTCATTAATCCGTTAGAAACTGTTTTGCTATATACATTTATCTTTTAAGAGGAGGAAT			cleaved RNA product abundance [4]: 0.384
ACAGACGAAGGAGCCGCAAAGAAGTTATTAAGCGATGAATAATCCCTCATAATAAATATCTCTCACTTATTTAAA	0.165		
ACAGACGAAGGAGCCGCAAAGAAGTTATTAAGGGATGTATAATCCCTCAATATAAATATCTCTCACTTATTTAAA	0.943	0.978	cleaved RNA product abundance [3]: 0.798
ACAGACGAAGGAGCCGCAAAGAAGTAATTAAGGTATTAATAATCCCTCAATATAAATATCTCTCACTTATTTAAA		0.0968	
ACAGACGAAGGAGCCGCAAAGAATTTATTAAGGGATGAATAAGCCCTCAATATAAATATCTCTCACTTATTTAAA	0.502	0.573	
CGACATGTCCCGCTTCTTTCATTAATGCTTTAGCAACTGTTTTGCTATATACATTTACCTTTTAAGAGGAGGAAT			cleaved RNA product abundance [4]: 0.618
ACAGACGAAGGAGCCGCAAAGAAGTTATTAAGGGATAAATAACCCCTCAATATAAATATCTCTCACTTATTTAAA	0.423	0.499	
ACAGACGAAGGAGCCGCAACGAAGTTATTATGGGATGAATAATCCCTCAATATAAATATCTCTCACTTATTTAAA		0.483	
ACAGACGAAGGAGCCGCAAAGAAATTAGTAAGGGATGAATAATCCCTCAATATAAATATCTCTCACTTATTTAAA	0.339	0.34	
ACAGACGAAGGAGCCGCAAAGAAGTTATTAAGGGATGAATAATTCCTCAATTTAAATATCTCTCACTTATTTAAA	0.0889	0.0634	

Sequence	cleaved RNA product abundance [1]	cleaved RNA product abundance [2]	other results
ACAGACGAAGGAGCCGCAAATAAGTTATTAAGGGATGAATAATACCTCAATATAAATATCTCTCACTTATTTAAA	0.112	0.165	
CGACATGTCCCGCTTCTTTCATTAATCCGTTAGTAACTGTTTTGCTATAGACATTTACCTTTTAAGAGGAGGAAT			cleaved RNA product abundance [4]: 0.536
CGACATGTCCCGCTTCTTTCATTATTCCGTTAGCAACTGTTTTGCTATGTACATTTACCTTTTAAGAGGAGGAAT			cleaved RNA product abundance [4]: 0.184
CGACATGTCCCGCTTCTTTCATTAACCCGTTAGAAACTGTTTTGCTATATACATTTACCTTTTAAGAGGAGGAAT			cleaved RNA product abundance [4]: 0.187
ACAGACGAAGGAGCCGCAAAGAAGTTCTTAAGGGATGAATAATCCCTCAAAATAAATATCTCTCACTTATTTAAA		0.182	
ACAGACGAAGGAGCCGCATAGAAGTTATTAAGGGATGAATAATCCCTCAATATAAATTTCTCTCACTTATTTAAA		0.644	
ACAGACGAAGGAGCCGCAAAGAAGTGATTTAGGGATGAATAATCCCTCAATATAAATATCTCTCACTTATTTAAA		0.386	
CGACATGTCCCGCTTCTTTCATTAATTCGTTAGCAACTGTTTTACTATATACATTTACCTTTTAAGAGGAGGAAT			cleaved RNA product abundance [4]: 0.749
ACAGACGAAGGAGCCGCAAAGAAGTTATTAAGCGATGAATAATCCCTCCATATAAATATCTCTCACTTATTTAAA		0.0952	
ACAGACGAAGGAGCCGCAAAGAAGTTATTAAGAGATGAATAATCCCTGAATATAAATATCTCTCACTTATTTAAA		0.0805	
CGACATGTCCCGCTTCTTTCATTAATCCGTTAGCAACTTTTTTGCTATATACAATTACCTTTTAAGAGGAGGAAT			cleaved RNA product abundance [4]: 1.63
CGACATGTCCCGCTTCTTTCATTAATCCGTTAGCAACTGTTTTGTTATATACATTTACGTTTTAAGAGGAGGAAT			cleaved RNA product abundance [4]: 0.39
ACAGACGAAGGAGCCGCAAAGAAGTTATTAAGGAATGAATAATCTCTCAATATAAATATCTCTCACTTATTTAAA	0.0991	0.155	
ACAGACGAAGGAGCCGCAAAGAAGTTATTAAGGGATCAATAATCCCTCAATATACATATCTCTCACTTATTTAAA		0.736	
CGACATGTCCCGCTTCTTTCATTAATCTGTGAGCAACTGTTTTGCTATATACATTTACCTTTTAAGAGGAGGAAT			cleaved RNA product abundance [4]: 0.777
ACAGACGAAGGAGCCGCAAAGAAGTTATTAAGGGATAAATAATCCCTCAATATAAATGTCTCTCACTTATTTAAA	0.46	0.539	
ACAGACGAAGGAGCCGCAAAGAAATTATTAAGGGGTGAATAATCCCTCAATATAAATATCTCTCACTTATTTAAA	0.541	0.734	
ACAGACGAAGGAGCCGCAAAGAAGTTATTAAAGGATGAATTATCCCTCAATATAAATATCTCTCACTTATTTAAA	0.14	0.149	
CGACATGTCCCGCTTCTTTCATTAATCCGTTAGCAACTGTGTTGTTATATACATTTACCTTTTAAGAGGAGGAAT			cleaved RNA product abundance [4]: 1.01

Sequence	cleaved RNA product abundance [1]	cleaved RNA product abundance [2]	other results
CGACATGTCCCGCTTCTTTCATTAATCCGTTAGCAAGTGTTTTGCTTTATACATTTACCTTTTAAGAGGAGGAAT			cleaved RNA product abundance [4]: 0.474
ACAGACGAAGGAGCCGCAAAGAAATTATTAAGGGCTGAATAATCCCTCAATATAAATATCTCTCACTTATTTAAA		0.498	
CGACATGTCCCGCTTCTTTCATTAATCCGTTAGCGACTGTTTAGCTATATACATTTACCTTTTAAGAGGAGGAAT			cleaved RNA product abundance [4]: 0.681
ACAGACGAAGGAGCCGCAAAGAAGTTAATAAGGGATAAATAATCCCTCAATATAAATATCTCTCACTTATTTAAA	0.253	0.382	
ACAGACGAAGGAGCCGCAAAGAAGTTATTAAGGGATGAATAATCCCTCAAGATAAATATCTCTCACTTATTTAAA	0.217	0.256	cleaved RNA product abundance [3]: 0.289
ACAGACGAAGGAGCCGCAAAGAAGTTATTAAGTGATGAATAATCCCCCAATATAAATATCTCTCACTTATTTAAA		0.127	
ACAGACGAAGGAGCCGCAAAGAAGTTATTAAGGGATGAATAATCCCTCAAAAGAAATATCTCTCACTTATTTAAA		0.0815	
ACAGACGAAGGAGCCGCAAAAAAGTTATTAAGGGATGAATAATCCCTCAATATACATATCTCTCACTTATTTAAA		0.996	
ACAGACGAAGGAGCCGCAAAGAAGTTATTAAGGGATGAATAATCACTCAATATAAAGATCTCTCACTTATTTAAA		0.0885	
ACAGACGAAGGAGCCGCAAAGAAATTATTAAGGGATGACTAATCTCTCAATATAAATATCTCTCACTTATTTAAA		0.582	
ACAGACGAAGGAGCCGCAAAGAGGTTATTAAGGGATGAATAATCCCTAAATATAAATATCTCTCACTTATTTAAA		0.386	
CGACATGTCCCGCTTCTTTCATTAATCCGTTAGCCAGTGTTTTGCTATATACATTTACCTTTTAAGAGGAGGAAT			cleaved RNA product abundance [4]: 0.333
CGACATGTCCCGCTTCTTTCATTAATCCGTTTACAACTGTTTTGCTATATACATTTACCTTTTAAGAGGAGGAAT			cleaved RNA product abundance [4]: 0.276
ACAGACGAAGGAGCCGCAAAGAAGTTAGTAAGGGATGAATAATCCCTCAATATAAATATCTCTCACTTATTTAAA	0.306	0.443	cleaved RNA product abundance [3]: 0.559
CGACATGTCCCGCTTCTTTCATTAATCCTCTAGCAACTGTTTTGCTATATACATTTACCTTTTAAGAGGAGGAAT			cleaved RNA product abundance [4]: 0.492
ACAGACGAAGGAGCCGCAAGGAAGTAATTAAGGGATGAATAATCCATCAATATAAATATCTCTCACTTATTTAAA	0.122		
ACAGACGAAGGAGCCGCGAAGAAGTTATTATGGGATGAATAATCCCTCAATATAAATATCTCTCACTTATTTAAA		0.357	
ACAGACGAAGGAGCCGCTAAGAAGTTATTAAGGGATGAATAATCCTTCAATATAAATATCTCTCACTTATTTAAA	0.434	0.597	
ACAGACGAAGGAGCCGCAAAGAAGTTCATAAGGGATGAATAATCCCTCAATATAAATATCTCTCACTTATTTAAA	0.162		

Reference: the supplement of paper PMC11780869
